Assay results from patent US20050048070A1 (published 2005).

Experiments:
[1] = biological target: T1, K18(1-385) GST fusion protein (human, UniProt P05783 2-386); assay: Western blot of SDS-PAGE-separated K18 GST fusion proteins, stained with COU-1 alone
T1 construct: Alone, not complexed; not shown: glutathione S-transferase (GST) fusion partner, modified pGEX-2T vector
T1 sequence: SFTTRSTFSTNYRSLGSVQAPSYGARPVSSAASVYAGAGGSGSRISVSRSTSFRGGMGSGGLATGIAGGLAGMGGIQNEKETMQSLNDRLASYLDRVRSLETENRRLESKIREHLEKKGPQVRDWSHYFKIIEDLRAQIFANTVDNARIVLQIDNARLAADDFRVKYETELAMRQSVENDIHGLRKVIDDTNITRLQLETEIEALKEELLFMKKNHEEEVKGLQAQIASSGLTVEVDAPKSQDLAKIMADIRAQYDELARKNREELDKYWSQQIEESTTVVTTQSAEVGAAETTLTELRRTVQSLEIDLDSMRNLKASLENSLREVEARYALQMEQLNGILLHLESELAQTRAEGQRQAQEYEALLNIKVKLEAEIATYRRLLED

[2] = biological target: T2, K18(1-213) GST fusion protein (human, UniProt P05783 2-214); assay: as above
T2 construct: Alone, not complexed; not shown: glutathione S-transferase (GST) fusion partner, modified pGEX-2T vector
T2 sequence: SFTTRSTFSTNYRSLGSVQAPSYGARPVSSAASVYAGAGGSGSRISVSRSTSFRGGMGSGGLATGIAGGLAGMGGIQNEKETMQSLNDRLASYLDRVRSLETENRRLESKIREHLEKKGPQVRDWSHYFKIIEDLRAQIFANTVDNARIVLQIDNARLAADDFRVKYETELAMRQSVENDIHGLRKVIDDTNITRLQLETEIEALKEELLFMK

[3] = biological target: T3, K18(1-124) GST fusion protein (human, UniProt P05783 2-125); assay: as above
T3 construct: Alone, not complexed; not shown: glutathione S-transferase (GST) fusion partner, modified pGEX-2T vector

[4] = biological target: T4, K18(1-187) GST fusion protein (human, UniProt P05783 2-188); assay: as above
T4 construct: Alone, not complexed; not shown: glutathione S-transferase (GST) fusion partner, modified pGEX-2T vector
T4 sequence: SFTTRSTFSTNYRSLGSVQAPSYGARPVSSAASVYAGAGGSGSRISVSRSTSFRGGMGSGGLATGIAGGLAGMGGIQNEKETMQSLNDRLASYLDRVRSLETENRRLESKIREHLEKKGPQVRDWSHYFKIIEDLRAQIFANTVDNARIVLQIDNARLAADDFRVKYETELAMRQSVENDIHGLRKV

[5] = biological target: T5, K18(1-356) GST fusion protein (human, UniProt P05783 2-357); assay: as above
T5 construct: Alone, not complexed; not shown: glutathione S-transferase (GST) fusion partner, modified pGEX-2T vector
T5 sequence: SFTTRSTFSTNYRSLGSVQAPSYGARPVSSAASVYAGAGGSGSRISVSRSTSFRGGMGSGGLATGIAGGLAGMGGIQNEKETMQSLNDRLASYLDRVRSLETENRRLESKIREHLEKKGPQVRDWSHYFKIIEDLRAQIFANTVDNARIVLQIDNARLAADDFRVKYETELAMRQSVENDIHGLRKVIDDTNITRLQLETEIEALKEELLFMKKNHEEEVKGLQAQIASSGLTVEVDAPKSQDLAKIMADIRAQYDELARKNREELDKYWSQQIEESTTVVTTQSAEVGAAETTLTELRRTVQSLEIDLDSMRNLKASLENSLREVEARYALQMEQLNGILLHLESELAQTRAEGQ

[6] = biological target: T6, recombinant intact K18 (GST fusion protein) (human, UniProt P05783 2-430); assay: as above
T6 construct: Alone, not complexed with K8; also called full length K18; cytokeratin 18; not shown: glutathione S-transferase (GST) fusion partner, modified pGEX-2T vector
T6 sequence: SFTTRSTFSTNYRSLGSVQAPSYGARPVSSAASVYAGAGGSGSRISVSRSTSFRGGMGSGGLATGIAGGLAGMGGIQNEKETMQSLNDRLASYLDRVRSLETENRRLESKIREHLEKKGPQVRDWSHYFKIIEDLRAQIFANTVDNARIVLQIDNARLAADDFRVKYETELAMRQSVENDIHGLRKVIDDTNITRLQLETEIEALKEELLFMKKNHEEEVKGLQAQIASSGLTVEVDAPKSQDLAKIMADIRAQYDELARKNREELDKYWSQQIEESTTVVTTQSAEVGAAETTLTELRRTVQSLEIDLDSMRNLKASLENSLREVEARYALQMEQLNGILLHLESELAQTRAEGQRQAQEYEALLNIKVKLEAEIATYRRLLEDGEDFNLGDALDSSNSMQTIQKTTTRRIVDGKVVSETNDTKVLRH

[7] = biological target: T7, K18(1-312) GST fusion protein (human, UniProt P05783 2-313); assay: as above
T7 construct: Alone, not complexed; not shown: glutathione S-transferase (GST) fusion partner, modified pGEX-2T vector
T7 sequence: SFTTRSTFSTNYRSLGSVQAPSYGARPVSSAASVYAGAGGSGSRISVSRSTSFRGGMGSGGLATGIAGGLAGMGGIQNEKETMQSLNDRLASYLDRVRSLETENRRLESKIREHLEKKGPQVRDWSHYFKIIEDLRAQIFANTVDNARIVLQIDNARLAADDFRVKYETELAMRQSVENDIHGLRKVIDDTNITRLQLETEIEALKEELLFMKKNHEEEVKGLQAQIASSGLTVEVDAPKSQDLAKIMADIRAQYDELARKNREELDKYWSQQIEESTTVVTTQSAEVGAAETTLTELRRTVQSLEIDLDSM

ovalbumin = biological target: T8, ovalbumin (UniProt P01012 2-386); assay: ELISA on coated antigens (data not shown)
T8 construct: Irrelevant antigen in the ELISA
T8 sequence (looked up): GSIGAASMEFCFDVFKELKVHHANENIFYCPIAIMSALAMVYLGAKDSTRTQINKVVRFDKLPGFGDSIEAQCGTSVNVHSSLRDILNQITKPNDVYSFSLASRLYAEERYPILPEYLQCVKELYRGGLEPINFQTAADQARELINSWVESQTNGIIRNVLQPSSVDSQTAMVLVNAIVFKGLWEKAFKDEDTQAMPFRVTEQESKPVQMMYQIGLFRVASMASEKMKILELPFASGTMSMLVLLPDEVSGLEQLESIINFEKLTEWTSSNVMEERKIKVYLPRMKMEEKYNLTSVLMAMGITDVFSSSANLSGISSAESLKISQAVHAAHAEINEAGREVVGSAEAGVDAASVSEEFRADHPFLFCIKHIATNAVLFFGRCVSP

B1: human monoclonal IgM antibody COU-1 (antibody, V domains shown)
VH: GAEVKKPGASVKVSCKASDYTFSSYYMHWVRQAPGQGLEWMGIINPSGGSTSYAQKFQGRVTMTRDTSTNTVYMELSSLRSEDTAVYYCARDQVVVAATLSNYGMDVWGQGTTVTVSS
VL: ELTQSPGTLSLSPGERATLSCRASQSVSSSYLAWYQQKPGQAPRLLIYDASNRATGIPARFSGSGSGTDFTLTISSLEPEDFAVYYCQQGTNWGIAFGQGTRLDIKR
notes: Human IgM with kappa light chain, secreted by hybridoma B9165 (ECACC 87040201), purified from culture supernatant; also called HMab COU-1; HuMab COU-1
- binding result [1]: no binding (tested: 5 µg/ml COU-1 (P-0279))
- binding result [2]: no binding (tested: 5 µg/ml COU-1 (P-0279))
- binding result [3]: no binding (tested: 5 µg/ml COU-1 (P-0279))
- binding result [4]: no binding (tested: 5 µg/ml COU-1 (P-0279))
- binding result [5]: no binding (tested: 5 µg/ml COU-1 (P-0279))
- binding result [6]: no binding (tested: 5 µg/ml COU-1 (P-0279))
- binding result [7]: no binding (tested: 5 µg/ml COU-1 (P-0279))
- binding result (ovalbumin): no binding
